According to patent EP4596582A1:

Experiments:
[1] = molecular target: human B7-H3 on human tumor cells (MCF-7, HT29, NCI-N87, HCC1806, HCC827) (human) (UniProt Q5ZPR3); experiment: cell-based or functional assay
[2] = molecular target: human B7-H3-4Ig on CHO-S cells (CHO-S-human B7-H3-4Ig) (human) (UniProt Q5ZPR3); experiment: cell-based or functional assay
[3] = molecular target: human B7-H3-4Ig-His protein (human) (UniProt Q5ZPR3); experiment: ELISA, antigen coated at 1 ug/ml
[4] = molecular target: monkey B7-H3-4Ig-His protein (monkey); experiment: ELISA, antigen coated at 1 ug/ml
[5] = molecular target: human B7-H3-4Ig-His protein (human) (UniProt Q5ZPR3); experiment: ELISA, antigen coated at 1 ug/ml; remark: listed apart in the source
[6] = molecular target: human B7-H3-4Ig-His protein (human) (UniProt Q5ZPR3); experiment: ELISA, antigen coated at 1 ug/ml (specificity panel)

human B7-H3 on human tumor cells (MCF-7, HT29, NCI-N87, HCC1806, HCC827) (human), sequence (Q5ZPR3 29-534): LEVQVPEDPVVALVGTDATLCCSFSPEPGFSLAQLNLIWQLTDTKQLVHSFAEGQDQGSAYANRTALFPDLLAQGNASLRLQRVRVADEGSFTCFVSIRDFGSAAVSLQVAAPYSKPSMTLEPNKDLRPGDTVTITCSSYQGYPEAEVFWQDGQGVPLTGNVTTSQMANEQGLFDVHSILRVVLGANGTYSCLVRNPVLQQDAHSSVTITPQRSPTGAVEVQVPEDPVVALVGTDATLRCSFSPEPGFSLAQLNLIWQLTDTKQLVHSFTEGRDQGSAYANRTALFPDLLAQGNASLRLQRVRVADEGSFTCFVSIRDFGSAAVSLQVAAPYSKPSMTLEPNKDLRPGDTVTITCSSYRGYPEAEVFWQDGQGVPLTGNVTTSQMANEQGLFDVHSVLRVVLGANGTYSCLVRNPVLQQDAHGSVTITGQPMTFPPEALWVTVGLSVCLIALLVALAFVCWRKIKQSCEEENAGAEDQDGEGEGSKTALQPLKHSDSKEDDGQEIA
human B7-H3-4Ig-His protein (human), sequence (Q5ZPR3 other isoform, or with tags, fused parts or gaps): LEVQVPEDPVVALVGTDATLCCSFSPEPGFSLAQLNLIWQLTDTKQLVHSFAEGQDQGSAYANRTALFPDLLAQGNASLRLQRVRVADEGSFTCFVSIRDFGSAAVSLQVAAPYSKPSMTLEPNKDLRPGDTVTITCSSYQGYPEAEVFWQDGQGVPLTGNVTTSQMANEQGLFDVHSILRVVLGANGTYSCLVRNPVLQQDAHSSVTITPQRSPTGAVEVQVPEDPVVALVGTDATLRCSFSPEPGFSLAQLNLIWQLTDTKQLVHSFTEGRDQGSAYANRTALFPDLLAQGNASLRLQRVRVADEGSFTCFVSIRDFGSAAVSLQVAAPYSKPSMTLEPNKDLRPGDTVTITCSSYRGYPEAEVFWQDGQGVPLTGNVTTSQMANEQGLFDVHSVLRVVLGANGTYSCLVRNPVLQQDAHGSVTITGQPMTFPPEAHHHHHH
human B7-H3-4Ig on CHO-S cells (CHO-S-human B7-H3-4Ig) (human), sequence (Q5ZPR3 29-534): as the sequence (Q5ZPR3 29-534) above

B1: control B7-H3 antibody DS7300 (antibody, INN chains, looked up, V domains shown)
VH: QVQLVQSGAEVKKPGSSVKVSCKASGYTFTNYVMHWVRQAPGQGLEWMGYINPYNDDVKYNEKFKGRVTITADESTSTAYMELSSLRSEDTAVYYCARWGYYGSPLYYFDYWGQGTLVTVSS
VL: EIVLTQSPATLSLSPGERATLSCRASSRLIYMHWYQQKPGQAPRPLIYATSNLASGIPARFSGSGSGTDFTLTISSLEPEDFAVYYCQQWNSNPPTFGQGTKVEIK
[1]
  Endocytosis EC50 on HCC827 cells (PHrodo, flow cytometry): 0.0152 mg/L
  Endocytosis EC50 on HCC1806 cells (PHrodo, flow cytometry): 0.0572 mg/L
  Endocytosis EC50 on NCI-N87 cells (PHrodo, flow cytometry): 0.0241 mg/L
[2]
  ADCC: EC50 of luciferase signal of Jurkat-NFAT/Luciferase-CD16A effector cells with CHO-S-human B7-H3-4Ig target cells: 0.108 mg/L
[3]
  EC50: 0.0138 mg/L
[4]
  EC50: 0.0237 mg/L
[5]
  EC50: 0.00336 mg/L
[6]
  EC50: 0.00336 mg/L
